In the supplement of paper PMC9732359:
± gives the uncertainty stated by the source.

Experiment: protein stability index of a GFP-peptide fusion (yeast GPS) (PSI 1-4); higher = more stable; sorted into four equal gates, so the index is relative within each strain
Settings: doa10∆
Summary of the method: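 Plasmids isolated from each sorting gate were PCR-amplified and Illumina-sequenced, and barcodes assigned the reads to strains. The gates, four of equal size, were set by GFP/Cherry fluorescence ratio on mid-log cultures in leucine-free medium. These cultures were yeast carrying a pooled library of tiled 17-residue yeast protein peptides fused downstream of GFP on a plasmid that also expresses Cherry. The protein stability index is the sum of every gate's read frequency times its gate number.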

Sequence | protein stability index
TPPAIEHKPVSPDKIGT [SSN2] | 3.03 ± 0.072
TPPDDLHPYVPSSKPQE [SRB8] | 2.71 ± 0.081
TPYNADFDGDEMNLHVP [RPO31] | 2.83 ± 0.087
TQARVITGNKIMRILKS [RPS13] | 1.41 ± 0.17
TQIVAKFPETSYPILNE [SIN4] | 2.92 ± 0.091
TQLSYLISSSLSNLSKD [YCS4] | 1.7 ± 0.041
TQSYNNQNTLKEISARR [POP1] | 2.29 ± 0.041
TRDDLLTILMRSIMKNR [RRI2] | 2.36 ± 0.082
TRLTAYQELAYRATSLD [YML031W/NDC1] | 3.13 ± 0.11
TRMQRGHRADVGGQFSK [REC8] | 2.98 ± 0.13
TRNSLGNVIQFIYGEDG [RPO21] | 3.01 ± 0.06
TRNSNNLAIVELVRLLI [BRR2] | 2.56 ± 0.06
TRPYILERARDVNIVNR [YCG1] | 3.29 ± 0.1
TRSHFNALYDTLLESNL [RPN6] | 2.3 ± 0.05
TSAHLKLKEMQKVLNAH [SMC4] | 2.41 ± 0.13
TSAKEPSENDVFYRMQQ [RPO31] | 3.08 ± 0.082
TSDLVKSLGLKLPLSVI [RPS17A] | 1.12 ± 0.07
TSEMKVLSIPPANHLQS [YGL100W/SEH1] | 2.64 ± 0.067
TSFEQGEITFDGIGGLT [RPT4] | 3.1 ± 0.085
TSGTNIAGTFNVGKPDQ [YOR098C/NUP1] | 3.22 ± 0.088
TSIANAFRRIMISEVPS [RPC40] | 1.71 ± 0.043
TSKQHKRSGHRTAPKSD [RPL18A] | 3.18 ± 0.23
TSLFGSSSAQQTKSNGT [YJL041W/NSP1] | 3.23 ± 0.11
TSLFHKFILSGFIFTSM [RRI2] | 2.09 ± 0.046
TSNASMNTTLGSIGSRK [YAR002W/NUP60] | 3.32 ± 0.1
TSPGFGVSSPGFSPTSP [RPO21] | 2.7 ± 0.077

Sequence | protein stability index
TSPSYSPTSPSYSPTSP [RPO21] | 2.64 ± 0.045
TSQHSDSLTQNNNNAPI [YOR098C/NUP1] | 2.72 ± 0.051
TTARNDLGVVFARAANG [CSL4] | 1.87 ± 0.056
TTESNSRLKALNLQFKA [YLR335W/NUP2] | 3.25 ± 0.11
TTFEYIIKERALLSKVK [SNF2] | 1.58 ± 0.046
TTFRNEYGKHDFKNEES [MED8] | 3.05 ± 0.1
TTFTHCEIHPSMILGVA [RPB2] | 1.75 ± 0.11
TTFTKVAAKWNTSLISL [PRP8] | 2.09 ± 0.052
TTGISSTGAADGGYNAQ [SMC2] | 3.32 ± 0.13
TTIQTEKVRPTPGEVAS [MCD1] | 2.74 ± 0.043
TTKERKKSRLGNSFHLM [PRP8] | 2.7 ± 0.066
TTLDAEKVFTQGLNILE [FAS1] | 3.17 ± 0.11
TTQRRYEKAQKDLENAQ [SMC1] | 3.05 ± 0.098
TTVPFKESDDPSIPLVI [POP1] | 2.8 ± 0.068
TVKFKHMDYDGNIVKEF [YMR129W/POM152] | 2.89 ± 0.079
TVMFFYHNKHMMCDFGT [DIB1] | 2.58 ± 0.049
TVRKSIACVLTVINEQQ [RPL35A] | 1.62 ± 0.077
TWIHSEIEELKSSIQNL [SMC3] | 2.27 ± 0.11
TYDMVGGLTKQIKEIKE [RPT6] | 2.26 ± 0.15
TYEAIDVPGRELKYELI [RPB2] | 3.01 ± 0.15
TYGFLTPNLWAEQPLPV [RPS2] | 1.21 ± 0.056
TYQLCVRLRSNVIKTGI [RPN3] | 3.25 ± 0.14
TYRYVSVSVLVDRLKIG [RPS25A] | 2.28 ± 0.091
TYSTPKRPYESSRLDAE [RPS9A] | 2.97 ± 0.073
VAAASKILSNLVYQYKG [PRE2] | 2.62 ± 0.088
VAALVSLTEKFSQTVAD [ECM29] | 2.77 ± 0.08

Sequence | protein stability index
VAGAIRAGIIIAKLSVI [RPS2] | 1.91 ± 0.1
VAKLANWFLEVYASGNP [YML031W/NDC1] | 2.1 ± 0.069
VAPFMIKYEFNGIPLKS [YMR129W/POM152] | 2.54 ± 0.077
VDENDEVLLAGFGRKGK [RPS23A] | 1.08 ± 0.084
VDFACCTNLTNRTLYEL [GRR1] | 2.72 ± 0.061
VDGMAKVPIGLILQRLK [RGR1] | 2.51 ± 0.1
VDIGGKQHAVLMLGSVN [RRP4] | 2.06 ± 0.052
VDKALIAEIKKTPLLKQ [RPL6A] | 2.64 ± 0.088
VDLLQFPWLNAIKYRPT [POP3] | 2.33 ± 0.07
VDNENNKPAIKEDSTIQ [SWI3] | 2.84 ± 0.063
VDPRIINSENDYSRKQL [NUT1] | 3.06 ± 0.072
VDSGSNDAMAGGFTAYG [RPO21] | 3.26 ± 0.16
VDSLDPFSEGVTFSVMP [SMC4] | 2.92 ± 0.086
VDTGLQPQHPHYVSTSK [YLR018C/POM34] | 2.38 ± 0.05
VDTLHNKEGTLEQREQN [SSN2] | 3.14 ± 0.15
VEDDLVTVQTELNEEKK [SMC2] | 3.23 ± 0.16
VEDELTESIALSSMRFK [RRI1] | 3.21 ± 0.067
VEECPQYIRTLVSEART [SSN8] | 1.67 ± 0.1
VEGHLFEIIDEASKKSA [FAS1] | 3.26 ± 0.17
VELTYSLNNSDSLISGV [BRR2] | 2.73 ± 0.12
VENGTTSIGIKCNDGVV [PRE10] | 2.14 ± 0.11
VEQGYEDAFNFWFDKLV [YCG1] | 3.05 ± 0.12
VETKLETKVDELRYQSH [DSN1] | 2.86 ± 0.088
VFLFDIEKVDRENMICK [RRI2] | 3.17 ± 0.17

Same assay, conditions: pdr5∆

Sequence | protein stability index
TPPAIEHKPVSPDKIGT [SSN2] | 3.35 ± 0.066
TPPDDLHPYVPSSKPQE [SRB8] | 2.98 ± 0.073
TPYNADFDGDEMNLHVP [RPO31] | 3.35 ± 0.085
TQARVITGNKIMRILKS [RPS13] | 1.24 ± 0.081
TQIVAKFPETSYPILNE [SIN4] | 3.02 ± 0.068
TQLSYLISSSLSNLSKD [YCS4] | 1.65 ± 0.041
TQSYNNQNTLKEISARR [POP1] | 2.48 ± 0.035
TRDDLLTILMRSIMKNR [RRI2] | 2.61 ± 0.087
TRLTAYQELAYRATSLD [YML031W/NDC1] | 3.01 ± 0.11
TRMQRGHRADVGGQFSK [REC8] | 3.32 ± 0.13
TRNSLGNVIQFIYGEDG [RPO21] | 2.92 ± 0.053
TRNSNNLAIVELVRLLI [BRR2] | 2.29 ± 0.049
TRPYILERARDVNIVNR [YCG1] | 2.78 ± 0.21
TRSHFNALYDTLLESNL [RPN6] | 2.49 ± 0.057
TSAHLKLKEMQKVLNAH [SMC4] | 2.76 ± 0.17
TSAKEPSENDVFYRMQQ [RPO31] | 3.08 ± 0.092
TSDLVKSLGLKLPLSVI [RPS17A] | 1.52 ± 0.078
TSEMKVLSIPPANHLQS [YGL100W/SEH1] | 2.15 ± 0.076
TSFEQGEITFDGIGGLT [RPT4] | 3.18 ± 0.074
TSGTNIAGTFNVGKPDQ [YOR098C/NUP1] | 3.01 ± 0.11
TSIANAFRRIMISEVPS [RPC40] | 1.83 ± 0.046
TSIRLEGDELENKTKKD [SRB4] | 3.78 ± 0.26
TSLFGSSSAQQTKSNGT [YJL041W/NSP1] | 3.4 ± 0.098
TSLFHKFILSGFIFTSM [RRI2] | 1.66 ± 0.03
TSNASMNTTLGSIGSRK [YAR002W/NUP60] | 3.27 ± 0.11
TSPGFGVSSPGFSPTSP [RPO21] | 2.66 ± 0.071

Sequence | protein stability index
TSPSYSPTSPSYSPTSP [RPO21] | 3 ± 0.038
TSQHSDSLTQNNNNAPI [YOR098C/NUP1] | 2.95 ± 0.036
TTARNDLGVVFARAANG [CSL4] | 2.02 ± 0.12
TTESNSRLKALNLQFKA [YLR335W/NUP2] | 3.04 ± 0.064
TTFEYIIKERALLSKVK [SNF2] | 1.67 ± 0.048
TTFRNEYGKHDFKNEES [MED8] | 3.01 ± 0.084
TTFTHCEIHPSMILGVA [RPB2] | 2.39 ± 0.075
TTFTKVAAKWNTSLISL [PRP8] | 2.39 ± 0.06
TTGISSTGAADGGYNAQ [SMC2] | 3.4 ± 0.093
TTIQTEKVRPTPGEVAS [MCD1] | 2.44 ± 0.041
TTKERKKSRLGNSFHLM [PRP8] | 2.83 ± 0.065
TTLDAEKVFTQGLNILE [FAS1] | 3.21 ± 0.1
TTQRRYEKAQKDLENAQ [SMC1] | 3.31 ± 0.069
TTVPFKESDDPSIPLVI [POP1] | 3.01 ± 0.069
TVKFKHMDYDGNIVKEF [YMR129W/POM152] | 2.39 ± 0.043
TVMFFYHNKHMMCDFGT [DIB1] | 2.51 ± 0.046
TVRKSIACVLTVINEQQ [RPL35A] | 2.07 ± 0.077
TWIHSEIEELKSSIQNL [SMC3] | 2.3 ± 0.068
TYDMVGGLTKQIKEIKE [RPT6] | 2.52 ± 0.17
TYEAIDVPGRELKYELI [RPB2] | 3.13 ± 0.098
TYGFLTPNLWAEQPLPV [RPS2] | 1.38 ± 0.081
TYQLCVRLRSNVIKTGI [RPN3] | 3.35 ± 0.14
TYRYVSVSVLVDRLKIG [RPS25A] | 1.48 ± 0.08
TYSTPKRPYESSRLDAE [RPS9A] | 3.02 ± 0.062
VAAASKILSNLVYQYKG [PRE2] | 2.5 ± 0.056
VAALVSLTEKFSQTVAD [ECM29] | 1.61 ± 0.059

Sequence | protein stability index
VAGAIRAGIIIAKLSVI [RPS2] | 2.35 ± 0.098
VAKLANWFLEVYASGNP [YML031W/NDC1] | 2.09 ± 0.049
VAPFMIKYEFNGIPLKS [YMR129W/POM152] | 1.91 ± 0.045
VAQGIMNAGGRNVTIQL [RPN2] | 2.61 ± 0.21
VCMHCGKLLLDEHNELM [RPO21] | 2.94 ± 0.18
VDENDEVLLAGFGRKGK [RPS23A] | 1.41 ± 0.076
VDFACCTNLTNRTLYEL [GRR1] | 2.71 ± 0.061
VDGMAKVPIGLILQRLK [RGR1] | 2.67 ± 0.091
VDIGGKQHAVLMLGSVN [RRP4] | 2.66 ± 0.052
VDKALIAEIKKTPLLKQ [RPL6A] | 2.12 ± 0.28
VDLLQFPWLNAIKYRPT [POP3] | 2.42 ± 0.091
VDNENNKPAIKEDSTIQ [SWI3] | 2.97 ± 0.069
VDPRIINSENDYSRKQL [NUT1] | 3.38 ± 0.072
VDSLDPFSEGVTFSVMP [SMC4] | 2.39 ± 0.065
VDTGLQPQHPHYVSTSK [YLR018C/POM34] | 2.77 ± 0.045
VDTLHNKEGTLEQREQN [SSN2] | 3.47 ± 0.099
VEDDLVTVQTELNEEKK [SMC2] | 2.55 ± 0.078
VEDELTESIALSSMRFK [RRI1] | 3.38 ± 0.051
VEECPQYIRTLVSEART [SSN8] | 1.7 ± 0.1
VEGHLFEIIDEASKKSA [FAS1] | 3.5 ± 0.15
VELTYSLNNSDSLISGV [BRR2] | 2.98 ± 0.085
VENGTTSIGIKCNDGVV [PRE10] | 2.1 ± 0.089
VEQGYEDAFNFWFDKLV [YCG1] | 2.66 ± 0.14
VETKLETKVDELRYQSH [DSN1] | 3.22 ± 0.074
